Assay results taken from patent US20060122119A1 (INSTITUT NAT L DE LA SANTE ET DE LA RECHERCHE MED, published 2006).

B1: NY-ESO-1 peptide 94-102 MPFATPMEA (peptide)
peptide: MPFATPMEA
notes: synthetic peptide; also called nonamer 94-102
B2: tyrosinase peptide 309-320 TPRLPSSADVEF (peptide)
peptide: TPRLPSSADVEF
notes: synthetic peptide; also called 12-mer 309-320
B3: NY-ESO-1 peptide 92-103 LAMPFATPMEAE (peptide)
peptide: LAMPFATPMEAE
notes: synthetic peptide; also called 12-mer 92-103
B4: NY-ESO-1 peptide 92-104 LAMPFATPMEAEL (peptide)
peptide: LAMPFATPMEAEL
notes: synthetic peptide; also called 13-mer 92-104
B5: NY-ESO-1 peptide 94-104 MPFATPMEAEL (peptide)
peptide: MPFATPMEAEL
notes: synthetic peptide; also called 11-mer 94-104
B6: tyrosinase peptide 309-322 TPRLPSSADVEFCL (peptide)
peptide: TPRLPSSADVEFCL
notes: synthetic peptide; also called 14-mer 309-322
B7: tyrosinase peptide 309-321 TPRLPSSADVEFC (peptide)
peptide: TPRLPSSADVEFC
notes: synthetic peptide; also called 13-mer 309-321
B8: NY-ESO-1 peptide 94-103 MPFATPMEAE (peptide)
peptide: MPFATPMEAE
notes: synthetic peptide; also called decamer 94-103

Columns and labels:
[1] = biological target: HLA-B*3501 (human)
[2] = biological target: HLA-B*3501 (human); remark: listed apart in the source
[3] = biological target: HLA-B*3501 (human); remark: listed apart in the source

| Binder | RA (relative affinity) [1] | Stability (half-life of the peptide on HLA-B*35) [2] | binding result [3] |
| --- | --- | --- | --- |
| EAAGIGILY (synthetic modified peptide) [modified Melan-A peptide 26-34 EAAGIGILY] | 1.32 | > 6 h |  |
| EPAGIGILY (synthetic modified peptide) [modified Melan-A peptide 26-34 EPAGIGILY] | 0.4 | > 6 h |  |
| QVPLDCVLYR (synthetic peptide, 70% purity) [gp100 peptide 470-479 QVPLDCVLYR] |  |  | no binding |
| B1 | 0.4 | > 6 h |  |
| VPLDCVLYR (synthetic peptide) [gp100 peptide 471-479 VPLDCVLYR] | 20 | < 0.5 h |  |
| LPSSADVEF (synthetic peptide) [tyrosinase peptide 312-320 LPSSADVEF] | 1.25 | 6 h |  |
| B2 | 1.3 | > 6 h |  |
| EVDPIGHVY (synthetic peptide) [MAGE-A6 peptide 168-176 EVDPIGHVY] | 1.1 | 6 h |  |
| B3 |  | > 6 h |  |
| B4 | 0.58 | > 6 h |  |
| B5 | 1.32 | > 6 h |  |
| VPLDCVLYRY (synthetic peptide) [gp100 peptide 471-480 VPLDCVLYRY] | 2.6 | > 6 h |  |
| B6 | > 20 | > 6 h |  |
| B7 | 16.7 | < 0.5 h |  |
| B8 |  | > 6 h |  |
